Experiment: yeast display, Sf9 membrane polyspecificity reagent, FACS + sequencing; frameworks hold sequencing errors
How it was run: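 Nanobodies came from a synthetic yeast display library in Saccharomyces cerevisiae BJ5465, induced with galactose for 36–48 hours and stained for 1 hour at 4 °C with 10% biotinylated, detergent-solubilized Sf9 membrane reagent. Cells were enriched on streptavidin microbeads and then FACS-sorted, with low and high (top ~1%) gates set on anti-HA fluorescence for expression and streptavidin fluorescence for reagent binding. Each polyreactivity label reflects the gate a clone came from. Genes were amplified by colony PCR, sequenced by MiSeq 2 × 250 and filtered by CDR length.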

Sequence	polyreactivity (PSR sort gate)
QVQLVESGGGLVQAGGSLRLSCAASGLIFNIYAMGWYRQAPGKERELVAAISKSGGSTYYADSVKGRFTISRDNAKNTVYLQMNSLKPEDTAVYYCAVRSMRVDKYGYWGQGTQVTVSS	high polyreactivity
QVQLVESGGGLVQAGGSLRLSCAASGLIFNNYAMGWYRQAPGKERELVATISRTGTSTYYADSVKGRFTISRDNAKNTVYLQMNSLKPEDTAVYYCNAVIQLFEWGWDDEYDYWGQGTQVTVSS	low polyreactivity
QVQLVESGGGLVQAGGSLRLSCAASGLIFNRNDMGRYRQAPGKETELVAAISGDGGITYYADSVKGRFTISRDNAKNTVYLQMNSLKPEDTAVYYCNAGFTWGDWYDYWGQGTQVTVSS	low polyreactivity
QVQLVESGGGLVQAGGSLRLSCAASGLIFNYYAMGWYRQAPGKERELVAAISYNGGTTYYADSVKGRFTISRDNAKNTVYLQMNSLKPEDTAVYYCAAEQLVSGYDYWGQGTQVTVSS	low polyreactivity
QVQLVESGGGLVQAGGSLRLSCAASGLIFPFYTMGWYRQAPGKERELVASISSGASTYYADSVKGRFTISRDNAKNTVYLQMNSLKPEDTAVYYCNADTFAWEGQRKWFAYDYWGQGTQVTVSS	low polyreactivity
QVQLVESGGGLVQAGGSLRLSCAASGLIFPSYAMGWYRQAPGKEMELVAAITFSGSDTNYADSVKGRFTISRDNAKNTVYLQMNSLKPEDTAVAYCAAAYFDFWGWLHDYWGQGTQVTVSS	low polyreactivity
QVQLVESGGGLVQAGGSLRLSCAASGLIFPTNAMGWYRPAPGKERELVAAISSVGSTYYADSVKGRFTISRDNAKNTVYLQMNSLKPEDTAVYYCAAYWYGSQYKWRYDYWGQGTQVTVSS	low polyreactivity
QVQLVESGGGLVQAGGSLRLSCAASGLIFPWTYAMGWYRQAPGKEREFVAAITSSDGSTYYADSVKGRFTISRDNAKNTVYLQMNSLKPEDTAVYYCAAVGWDYDWDYYYWGQGTQVTVSS	high polyreactivity
QVQLVESGGGLVQAGGSLRLSCAASGLIFPYYAMGWNRQAPGKESELVAASSGSGGRTYYADSVKGRFTISRDNAKITVYLQMNSRKPEDTAVYYCAAAVLDSYTRYIWYIYDYWGQGTQVTVSS	high polyreactivity
QVQLVESGGGLVQAGGSLRLSCAASGLIFPYYAMGWYRPAPGKERELVAAISRSGDSTYYADSVKGRFTISRDNAKNTVYLQMYSLKPEDTAVYYCAAVLSYSYVRYNYWGQGTQVNVSS	high polyreactivity
QVQLVESGGGLVQAGGSLRLSCAASGLIFPYYAMGWYRQAHGKERELVAAITRRGGSTYYADSVKGRFTISRDNAKNTVYLQMNSLKPEDTAVYYCNKVDQGRYGYWGQGTQVTVSS	high polyreactivity
QVQLVESGGGLVQAGGSLRLSCAASGLIFQRNTMGWYRQAPGKERELVAAISRSGGSTYYADSVKGRFTISRDNAKNTVYLQMNSLKPEDTAVYYCAALIFRHRGKDDDYWGQGTQVTVSS	high polyreactivity
QVQLVESGGGLVQAGGSLRLSCAASGLIFQYYVMGWYRQAPGKERELVAAISARGGGTYYADSVKGRFTISRDNEKITVYLQMNSLKPEDTAVYYCAADFGTIRVYSGDYWGQGTQVTVSS	high polyreactivity
QVQLVESGGGLVQAGGSLRLSCAASGLIFRAYAMGWYRQAPGKERELVAAISRNGGSTYYADSVKGRFTISRDNAKTTVYLQMNSLKPEDTAVYYCNKVSRSSVYLDYYYWGQGTQVTVSS	high polyreactivity
QVQLVESGGGLVQAGGSLRLSCAASGLIFRAYAMGWYRQAPGKERELVAAITRSGGSTYYADSVKGRFTISRDNAKNTVDLQMNSLKPEDTAVYYCATAQWVGYWDDYWGQGTQVTVSS	high polyreactivity
QVQLVESGGGLVQAGGSLRLSCAASGLIFRGYVMGWYRQAPGKERELVAAISRRGVNTYYADSVKGRFTISRDNAKNTFYLQMNSLKPEDTAVYYCNAYVHTQGGDYWGQGTQVTVSS	high polyreactivity
QVQLVESGGGLVQAGGSLRLSCAASGLIFRHYAMGWYRQAPGKERELVAVISSGAGTYYADSVKGRFTISRDNAKNTVYLQMISMKPEDTAVYYSARDLYYRYRYFITGLYDSWGQGTQVTVSS	low polyreactivity
QVQLVESGGGLVQAGGSLRLSCAASGLIFRIYAMGWYRQAPGKERELVAAISSTGSRTYYADSVKGRFTISRDNAKNTVYLQMNSLKPEDTAVYYCAAKAYINNYDYWGQGTQVTVSS	high polyreactivity
QVQLVESGGGLVQAGGSLRLSCAASGLIFRKYAMGWYRQAPGKERELVAAISRSGGSTYYADSVKGRFTISRDNAKTTVYLQMNSLKPEDTAVYYGAAQQHYGDGYWGQGTQVTVSS	high polyreactivity
QVQLVESGGGLVQAGGSLRLSCAASGLIFRLYAMGWYIQAPGKERELVAAISGGGGSTYYADSVKGRFTISRDNAKNTVYLQMNSLKPEDTAVYYCAATYSRGYWWSEYDYWGQGTQVTVSS	low polyreactivity
QVQLVESGGGLVQAGGSLRLSCAASGLIFRNYAMGWYRQAPGKERELVAAISSGGDNTYYADSVKGRFTISRDNAKNTVYLQMNSLKPEDTAVYYCAAGRYVGPSYYAYGYWGQGTQVTVSS	high polyreactivity
QVQLVESGGGLVQAGGSLRLSCAASGLIFRRYALGWYRQAPGKERELVAVISSGGRTYYADSVKGRFTISRDNAKNTVYLQMNSLKPEDTAVYYCAARTRSYWGTYGSYHYDYWGQGTQVTVSS	high polyreactivity

Sequence	polyreactivity (PSR sort gate)
QVQLVESGGGLVQAGGSLRLSCAASGLIFRSYAMGWYRQEPGKERELVARISIRGGSTYYADSVKGRFTISRDNAKNTVYLQMNSLKPEDTAVYYCAADYASWSNWGYEYWGQGTQVTVSS	high polyreactivity
QVQLVESGGGLVQAGGSLRLSCAASGLIFRTYTMGWYRQAPGKERELVATITRRGGTTYYADSVKGRFTISRDNAKNTVYLQMNSLKPEDTAVYYCAKSPYYTWKYDYWGQGTQVTVSS	high polyreactivity
QVQLVESGGGLVQAGGSLRLSCAASGLIFRWYAMGWSRQAPGKEWELVAAINYSGGRTYYADSVKGRFTISRDNAKNTVYLQMNSLKPEDTAVYYCAADGTYVWGSEEGNYWGQGTQVTVSS	low polyreactivity
QVQLVESGGGLVQAGGSLRLSCAASGLIFRYNAMGWYRQAPGKEMELVASITSDGSTNYADSVKGRFTISRDNAKNTVYLQMNSLKPEDTAVYYCAADGYTYWYYQLIPDYDYWGQGTQVTVSS	low polyreactivity
QVQLVESGGGLVQAGGSLRLSCAASGLIFRYYAMGWYRQAPGKERELVAAISYSGGRTYYADSVKGRFTISRDNAKNTVYLQMNSLKPEDTAVYYCAAVDRRGYRYALDYWGQGTQVTVSS	high polyreactivity
QVQLVESGGGLVQAGGSLRLSCAASGLIFRYYAMGWYRQATGKEREFVAAITWRTGSTYYADSVKGRFTISRDNAKNTVYLQMNSLKPEDTAVYYCAARGGRRYDYWGQGTQVTVSS	high polyreactivity
QVQLVESGGGLVQAGGSLRLSCAASGLIFSAYAMGWYRQAPGKERELVAGISRRGSTYYADSVKGRFTISRDNAKNTVYLQMNSLKPEDTAVYYCAAYFRVRFRASGYDYWGQGTQVTVSS	high polyreactivity
QVQLVESGGGLVQAGGSLRLSCAASGLIFSDYAMGWYRQEPGKERELVAAIRSGGRTYYADSVKGRFTISRDNAKNTVYLQMNSLKPEDTAVYYCNKLYRRYPVPREYDYWGQGTQVTVSS	high polyreactivity
QVQLVESGGGLVQAGGSLRLSCAASGLIFSGYTMGWYRQAPGKERELVAAISKSGGNTYYADSVTGRFTISRDNAKNTVYLQMNSLKPEDTAVYYCNRDVTYYRGYDYWGQGTQVTVSS	high polyreactivity
QVQLVESGGGLVQAGGSLRLSCAASGLIFSHNVMGWYRQAPGKERELVAAISKGGGSTYYADSVKGRFTISRDNAKNTVYLQLNSLIPEDTAVYYCAAPYWSKYRQTEYDYWGQGTQVTVSS	high polyreactivity
QVQLVESGGGLVQAGGSLRLSCAASGLIFSLYAMGWSRQAPGKDRELVADITVDGDGSTYYADSVKGRFTISRDIAKNTVYLQMNSLIPEDTAVYYCAADAYFGWYYYWGQGTQVTVSS	high polyreactivity
QVQLVESGGGLVQAGGSLRLSCAASGLIFSRNAMGWYRQAPGKERELVAAISTGGSTYYADSVKGRFTISRDNAKNTVYLQMNSLKPEATAVYDCAAAPGYIYEYWGQGTQVTVSS	low polyreactivity
QVQLVESGGGLVQAGGSLRLSCAASGLIFSRYTMGWYRQAPGKERELVAAISGRGTSTYYADSVKGRFTISRDNAKNTVYLQMNSLKPEDTAVYYCATSKSYSAFDYWGQGTQVTVSS	high polyreactivity
QVQLVESGGGLVQAGGSLRLSCAASGLIFSSYAMGWYRQAPGKEREFVAAINYNGGRTYYADSVKGRFTISRDNAKNTVYLQMNSLKPEDTAVYYCDGRYGSGGDYWGQGTQVTVSS	low polyreactivity
QVQLVESGGGLVQAGGSLRLSCAASGLIFSSYAMGWYRQAPGKERELVAAITGSGGRTYYADSVKGRFTISRDNAKNTVYLQMNSLKPEDTAVYYCAAKYPAPRYYTGYDYWGQGTQVTVSS	high polyreactivity
QVQLVESGGGLVQAGGSLRLSCAASGLIFSVYGMGWYRQAPGKERELVAAISSRGGSTYYADSVKGRFTISRDLAKNTVYLQMNSLKQEDTAVYYCAARSNYRMDYWGQGTQVTVSS	high polyreactivity
QVQLVESGGGLVQAGGSLRLSCAASGLIFSWYAMGWYRQAPGKERELVAAISSGSSTNYADSVKGRFTISRDNAKNTVYLQRNSLKPEDTAVYYCAARIYYTSRLRMYYWGQGTQVTVSS	high polyreactivity
QVQLVESGGGLVQAGGSLRLSCAASGLIFSYNAMGWYRQAPGKERELVAAISYSGGSTYYADSVKGRYTISRDNAKYTVYLQMNSLKPEDTAVYYCAAVLSPDFYYWGQGTQVTVSS	high polyreactivity
QVQLVESGGGLVQAGGSLRLSCAASGLIFTGNTMGWSRQAPGKETELVADITWSDGSTYYADSVKGRFTISRDTENNTVYLQMNSLKPEDTAVYYCAADSVLDRPVLYLWPWYLGDYWGQGTQVTVSS	low polyreactivity
QVQLVESGGGLVQAGGSLRLSCAASGLIFTPYAMGWYRQAPGKERELVAAINYGGSRTYYADSVKGRFTISRDNAKNTVYLQMNSLKPEDTAVYYCAARGFTLSYVDMYYWGLGTQVTVSS	high polyreactivity
QVQLVESGGGLVQAGGSLRLSCAASGLIFTPYPMGWYRQAPGKERELVAAISVSGGRTYYADSVKGRITISRDNEKNTVYLQMNSLKPEDTAVYYCAASDRYGGRDYWGQGTQVTVSS	high polyreactivity

— the nanobody polyreactivity screen of Harvey et al. (2022)
